Laboratory results taken from patent publication US20060160994A1 (STICHTING SANQUIN BLOEDVOORZIENING, published 2006).

What was measured:
[1] = target: T1, low density lipoprotein receptor-related protein (LRP), purified and immobilized (UniProt Q07954 20-4544, limits assumed); test: SPR, LRP immobilized (6.7 fmol/mm^2), two classes of binding sites, class A
T1 construct: Purified LRP, amine-coupled to a CM5 sensor chip; also called low density lipoprotein receptor protein; alpha2-macroglobulin receptor
Description: (§1) This method is generally known in the art and was employed for the kinetic analysis of the interaction between LRP and receptor-associated protein (RAP) (Hom I, in LRP-ligand interactions: kinetics and structural requirements; Ph.D. thesis, 1997, pp. 65-106, Amsterdam University). […] Subsequently, the channels were incubated with the same buffer at a similar flow so as to enable dissociation.
(§2) The data were analyzed by means of Biacore Evaluation Software (Pharmacia Biosensor AB, Uppsala, Sweden). […] The association and dissociation speed constants (kₒₙ and koff, respectively) were calculated for the two binding sites. These speed constants were subsequently used to obtain the affinity constants (Kd) for these interactions.

[2] = target: T1, low density lipoprotein …; test: SPR, LRP immobilized (6.7 fmol/mm^2), two classes of binding sites, class A; Kd = koff/kon
Description: as §1, §2

[3] = target: T1, low density lipoprotein …; test: SPR, LRP immobilized (6.7 fmol/mm^2), two classes of binding sites, class B
Description: as §1, §2

[4] = target: T1, low density lipoprotein …; test: SPR, LRP immobilized (6.7 fmol/mm^2), two classes of binding sites, class B; Kd = koff/kon
Description: as §1, §2

T1 sequence (Q07954 20-4544 limits assumed, form in doubt): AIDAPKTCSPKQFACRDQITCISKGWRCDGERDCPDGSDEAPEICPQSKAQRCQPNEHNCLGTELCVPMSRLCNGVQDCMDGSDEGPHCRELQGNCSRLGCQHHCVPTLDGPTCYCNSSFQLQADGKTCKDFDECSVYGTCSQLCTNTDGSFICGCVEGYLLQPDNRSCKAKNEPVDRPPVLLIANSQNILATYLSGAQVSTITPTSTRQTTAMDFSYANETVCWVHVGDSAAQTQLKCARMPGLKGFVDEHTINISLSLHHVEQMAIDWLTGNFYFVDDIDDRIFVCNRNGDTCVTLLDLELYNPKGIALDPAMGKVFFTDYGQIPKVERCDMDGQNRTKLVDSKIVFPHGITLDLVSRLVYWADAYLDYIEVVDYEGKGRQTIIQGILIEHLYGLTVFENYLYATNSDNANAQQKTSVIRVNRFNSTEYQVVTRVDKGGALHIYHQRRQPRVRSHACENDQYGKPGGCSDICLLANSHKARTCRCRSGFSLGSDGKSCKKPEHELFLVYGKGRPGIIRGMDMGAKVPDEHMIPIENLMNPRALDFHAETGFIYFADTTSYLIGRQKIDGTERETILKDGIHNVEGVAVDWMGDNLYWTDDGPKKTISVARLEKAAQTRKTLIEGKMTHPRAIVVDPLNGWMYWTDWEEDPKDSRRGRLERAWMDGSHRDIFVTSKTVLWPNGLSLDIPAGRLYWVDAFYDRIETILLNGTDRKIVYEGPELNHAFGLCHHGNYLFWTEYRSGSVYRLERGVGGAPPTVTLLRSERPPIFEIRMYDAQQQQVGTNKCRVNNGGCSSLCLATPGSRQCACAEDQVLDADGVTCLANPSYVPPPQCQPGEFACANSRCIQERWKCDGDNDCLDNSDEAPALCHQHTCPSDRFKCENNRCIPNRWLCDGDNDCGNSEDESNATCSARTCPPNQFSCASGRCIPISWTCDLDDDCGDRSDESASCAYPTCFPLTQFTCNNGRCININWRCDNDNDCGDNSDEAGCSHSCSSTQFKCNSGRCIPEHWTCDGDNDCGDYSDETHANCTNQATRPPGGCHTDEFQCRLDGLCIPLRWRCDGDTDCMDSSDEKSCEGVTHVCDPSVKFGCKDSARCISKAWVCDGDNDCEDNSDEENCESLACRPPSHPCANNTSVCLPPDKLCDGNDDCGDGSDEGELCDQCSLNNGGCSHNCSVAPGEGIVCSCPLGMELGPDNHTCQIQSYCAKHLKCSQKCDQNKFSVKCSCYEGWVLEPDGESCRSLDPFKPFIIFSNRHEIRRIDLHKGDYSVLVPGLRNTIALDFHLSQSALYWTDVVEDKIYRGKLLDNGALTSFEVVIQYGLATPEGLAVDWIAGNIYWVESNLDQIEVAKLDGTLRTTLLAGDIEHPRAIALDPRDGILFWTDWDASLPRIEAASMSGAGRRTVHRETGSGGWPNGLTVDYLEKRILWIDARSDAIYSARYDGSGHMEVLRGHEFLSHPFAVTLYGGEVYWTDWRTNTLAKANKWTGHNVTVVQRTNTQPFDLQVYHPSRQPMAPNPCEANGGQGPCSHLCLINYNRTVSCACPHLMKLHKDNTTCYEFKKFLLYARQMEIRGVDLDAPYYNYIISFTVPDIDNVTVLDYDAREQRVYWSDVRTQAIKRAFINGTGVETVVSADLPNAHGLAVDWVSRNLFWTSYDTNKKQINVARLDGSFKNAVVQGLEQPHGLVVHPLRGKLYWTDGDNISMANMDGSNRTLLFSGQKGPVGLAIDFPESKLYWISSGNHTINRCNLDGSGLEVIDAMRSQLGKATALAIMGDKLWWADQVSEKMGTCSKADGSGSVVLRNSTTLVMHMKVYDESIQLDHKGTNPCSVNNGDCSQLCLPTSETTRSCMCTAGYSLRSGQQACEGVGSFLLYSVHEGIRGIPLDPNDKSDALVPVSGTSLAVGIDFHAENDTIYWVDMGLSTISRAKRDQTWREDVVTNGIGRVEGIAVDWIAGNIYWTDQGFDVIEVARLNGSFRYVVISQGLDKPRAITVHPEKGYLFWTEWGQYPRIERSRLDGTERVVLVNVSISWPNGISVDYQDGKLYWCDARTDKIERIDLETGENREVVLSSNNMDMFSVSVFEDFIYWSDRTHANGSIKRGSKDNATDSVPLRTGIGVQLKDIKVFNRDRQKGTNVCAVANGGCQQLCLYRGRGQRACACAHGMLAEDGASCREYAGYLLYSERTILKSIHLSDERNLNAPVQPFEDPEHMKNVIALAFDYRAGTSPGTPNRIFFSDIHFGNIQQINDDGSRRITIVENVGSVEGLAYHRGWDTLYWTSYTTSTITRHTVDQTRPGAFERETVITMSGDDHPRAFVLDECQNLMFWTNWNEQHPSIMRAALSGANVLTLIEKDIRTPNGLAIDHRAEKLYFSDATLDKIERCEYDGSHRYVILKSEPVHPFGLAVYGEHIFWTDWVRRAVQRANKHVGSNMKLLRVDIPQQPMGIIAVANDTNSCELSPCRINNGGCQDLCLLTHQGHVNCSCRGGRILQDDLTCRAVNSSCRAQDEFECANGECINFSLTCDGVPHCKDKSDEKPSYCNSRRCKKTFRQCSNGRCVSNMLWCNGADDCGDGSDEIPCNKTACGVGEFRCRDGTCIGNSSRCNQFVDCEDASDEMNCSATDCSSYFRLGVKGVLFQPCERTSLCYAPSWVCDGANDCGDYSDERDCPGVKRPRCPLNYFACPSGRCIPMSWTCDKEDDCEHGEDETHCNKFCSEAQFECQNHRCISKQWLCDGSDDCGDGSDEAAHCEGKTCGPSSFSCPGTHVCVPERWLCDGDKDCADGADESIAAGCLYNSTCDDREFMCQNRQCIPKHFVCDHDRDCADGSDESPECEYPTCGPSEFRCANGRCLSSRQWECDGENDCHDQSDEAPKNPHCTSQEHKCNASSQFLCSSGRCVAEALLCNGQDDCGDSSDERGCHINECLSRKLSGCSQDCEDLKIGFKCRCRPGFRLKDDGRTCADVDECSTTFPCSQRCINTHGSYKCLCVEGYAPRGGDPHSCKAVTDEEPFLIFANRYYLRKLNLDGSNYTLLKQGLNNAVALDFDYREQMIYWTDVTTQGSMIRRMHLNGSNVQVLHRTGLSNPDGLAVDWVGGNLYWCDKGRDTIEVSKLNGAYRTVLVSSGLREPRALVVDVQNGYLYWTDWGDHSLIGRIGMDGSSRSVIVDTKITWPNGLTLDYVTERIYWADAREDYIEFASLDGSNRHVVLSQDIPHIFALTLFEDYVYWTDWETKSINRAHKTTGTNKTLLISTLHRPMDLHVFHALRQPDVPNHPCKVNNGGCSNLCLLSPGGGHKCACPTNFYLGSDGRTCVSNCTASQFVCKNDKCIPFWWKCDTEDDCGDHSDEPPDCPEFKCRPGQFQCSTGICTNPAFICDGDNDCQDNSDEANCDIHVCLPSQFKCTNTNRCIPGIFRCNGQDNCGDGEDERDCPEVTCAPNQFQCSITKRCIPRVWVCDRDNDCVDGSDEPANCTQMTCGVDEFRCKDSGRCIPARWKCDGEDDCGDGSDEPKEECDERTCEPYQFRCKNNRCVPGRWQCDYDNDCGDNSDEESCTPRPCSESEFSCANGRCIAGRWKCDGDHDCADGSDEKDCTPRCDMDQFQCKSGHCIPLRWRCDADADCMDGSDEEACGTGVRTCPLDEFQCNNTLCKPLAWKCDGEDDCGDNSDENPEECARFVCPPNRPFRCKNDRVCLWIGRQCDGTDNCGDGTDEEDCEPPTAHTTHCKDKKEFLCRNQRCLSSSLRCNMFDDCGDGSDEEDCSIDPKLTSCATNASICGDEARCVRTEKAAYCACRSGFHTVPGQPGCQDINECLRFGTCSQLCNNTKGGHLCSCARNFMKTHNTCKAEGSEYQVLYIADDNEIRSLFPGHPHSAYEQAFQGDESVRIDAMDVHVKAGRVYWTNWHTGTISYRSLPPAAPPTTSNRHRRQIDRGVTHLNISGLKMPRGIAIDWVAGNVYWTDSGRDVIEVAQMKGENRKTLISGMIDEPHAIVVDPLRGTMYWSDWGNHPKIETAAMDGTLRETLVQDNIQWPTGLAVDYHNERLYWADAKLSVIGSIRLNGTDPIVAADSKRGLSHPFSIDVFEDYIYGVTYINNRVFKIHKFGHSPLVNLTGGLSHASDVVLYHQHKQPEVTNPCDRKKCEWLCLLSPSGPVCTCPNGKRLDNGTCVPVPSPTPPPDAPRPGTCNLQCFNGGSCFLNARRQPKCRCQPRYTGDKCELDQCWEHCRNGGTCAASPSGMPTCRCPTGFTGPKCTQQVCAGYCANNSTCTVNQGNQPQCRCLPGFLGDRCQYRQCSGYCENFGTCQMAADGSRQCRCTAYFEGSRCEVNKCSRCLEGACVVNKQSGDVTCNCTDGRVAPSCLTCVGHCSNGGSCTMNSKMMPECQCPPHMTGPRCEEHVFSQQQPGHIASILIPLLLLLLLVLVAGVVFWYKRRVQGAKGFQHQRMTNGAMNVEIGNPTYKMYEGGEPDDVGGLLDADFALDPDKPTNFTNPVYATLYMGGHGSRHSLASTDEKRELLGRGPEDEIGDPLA

B1: light chain of Factor VIII (other)
chain: EITRTTLQSDQEEIDYDDTISVEMKKEDFDIYDEDENQSPRSFQKKTRHYFIAAVERLWDYGMSSSPHVLRNRAQSGSVPQFKKVVFQEFTDGSFTQPLYRGELNEHLGLLGPYIRAEVEDNIMVTFRNQASRPYSFYSSLISYEEDQRQGAEPRKNFVKPNETKTYFWKVQHHMAPTKDEFDCKAWAYFSDVDLEKDVHSGLIGPLLVCHTNTLNPAHGRQVTVQEFALFFTIFDETKSWYFTENMERNCRAPCNIQMEDPTFKENYRFHAINGYIMDTLPGLVMAQDQRIRWYLLSMGSNENIHSIHFSGHVFTVRKKEEYKMALYNLYPGVFETVEMLPSKAGIWRVECLIGEHLHAGMSTLFLVYSNKCQTPLGMASGHIRDFQITASGQYGQWAPKLARLHYSGSINAWSTKEPFSWIKVDLLAPMIIHGIKTQGARQKFSSLYISQFIIMYSLDGKKWQTYRGNSTGTLMVFFGNVDSSGIKHNIFNPPIIARYIRLHPTHYSIRSTLRMELMGCDLNSCSMPLGMESKAISDAQITASSYFTNMFATWSPSKARLHLQGRSNAWRPQVNNPKEWLQVDFQKTMKVTGVTTQGVKSLLTSMYVKEFLISSSQDGHQWTLFFQNGKVKVFQGNQDSFTPVVNSLDPPLLTRYLRIHPQSWVHQIALRMEVLGCEAQDLY
notes: also called Factor VIII light chain
- koff [1]: 0.055 s⁻¹
- kon [1]: 300000 M⁻¹ s⁻¹
- Kd [2]: 0.182 µM
- koff [3]: 0.0027 s⁻¹
- kon [3]: 72000 M⁻¹ s⁻¹
- Kd [4]: 0.037 µM
